The record followed here is patent US20110166062A1 (INDIANA UNIVERSITY RESEARCH AND TECHNOLOGY, published 2011).

Where no end group is shown, it is not given here. [ ]: non-standard residue; d: D form. The star is where a group is joined. C18 fatty acyl = 18 carbon fatty acyl group covalently attached to Lys; PEG 40 kDa = PEG (40 kDa) covalently attached to Cys; Stearoyl = CCCCCCCCCCCCCCCCCC(=O)*; Palmitoyl = CCCCCCCCCCCCCCCC(=O)*; Myristoyl = CCCCCCCCCCCCCC(=O)*; Aib = CC(C)(N)C(=O)O

What all share (experiment): cell-based or functional assay
In test [1] the target is T1, GIP receptor (UniProt P48546 22-466).
T1 sequence (looked up): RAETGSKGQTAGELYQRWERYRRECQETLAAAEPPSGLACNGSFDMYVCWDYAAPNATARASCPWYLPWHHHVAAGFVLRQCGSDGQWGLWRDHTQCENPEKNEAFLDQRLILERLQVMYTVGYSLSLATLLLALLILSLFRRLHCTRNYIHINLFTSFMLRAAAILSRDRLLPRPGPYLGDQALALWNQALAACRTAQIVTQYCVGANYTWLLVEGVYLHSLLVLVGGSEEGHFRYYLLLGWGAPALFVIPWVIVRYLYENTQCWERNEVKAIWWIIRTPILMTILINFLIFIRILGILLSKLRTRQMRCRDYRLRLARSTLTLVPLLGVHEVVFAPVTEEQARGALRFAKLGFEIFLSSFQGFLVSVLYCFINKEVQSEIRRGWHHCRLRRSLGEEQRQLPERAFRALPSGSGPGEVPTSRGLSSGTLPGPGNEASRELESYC

Test [2] addresses GLP-1 receptor (UniProt P43220 24-463, limits assumed).
In test [3] the target is glucagon receptor (UniProt P47871 26-477, limits assumed).
glucagon receptor, sequence (P47871 26-477 limits assumed): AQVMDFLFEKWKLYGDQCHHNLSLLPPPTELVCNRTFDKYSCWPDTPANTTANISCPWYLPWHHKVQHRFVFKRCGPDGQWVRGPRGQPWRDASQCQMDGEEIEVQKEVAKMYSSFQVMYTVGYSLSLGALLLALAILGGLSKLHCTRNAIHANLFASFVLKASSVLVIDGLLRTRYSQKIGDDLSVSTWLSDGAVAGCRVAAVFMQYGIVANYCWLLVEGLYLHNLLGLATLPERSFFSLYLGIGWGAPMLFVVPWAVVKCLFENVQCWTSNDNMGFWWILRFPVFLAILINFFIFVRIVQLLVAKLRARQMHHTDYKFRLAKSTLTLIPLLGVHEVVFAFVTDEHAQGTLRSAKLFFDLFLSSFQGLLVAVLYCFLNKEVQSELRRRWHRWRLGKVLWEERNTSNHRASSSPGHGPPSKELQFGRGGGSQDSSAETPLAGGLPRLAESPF

B1: mt-296 (peptide)
peptide: Y[Aib]EGTFTSDYSIYLDKQAA[Aib]EFVCWLLAGGPSSGAPPPSK(Palmitoyl)-NH2
modifications: N-terminus assumed
SMILES: CCCCCCCCCCCCCCCC(=O)NCCCC[C@H](NC(=O)[C@H](CO)NC(=O)[C@@H]1CCCN1C(=O)[C@@H]1CCCN1C(=O)[C@@H]1CCCN1C(=O)[C@H](C)NC(=O)CNC(=O)[C@H](CO)NC(=O)[C@H](CO)NC(=O)[C@@H]1CCCN1C(=O)CNC(=O)CNC(=O)[C@H](C)NC(=O)[C@H](CC(C)C)NC(=O)[C@H](CC(C)C)NC(=O)[C@H](Cc1c[nH]c2ccccc12)NC(=O)[C@H](CS)NC(=O)[C@@H](NC(=O)[C@H](Cc1ccccc1)NC(=O)[C@H](CCC(=O)O)NC(=O)C(C)(C)NC(=O)[C@H](C)NC(=O)[C@H](C)NC(=O)[C@H](CCC(N)=O)NC(=O)[C@H](CCCCN)NC(=O)[C@H](CC(=O)O)NC(=O)[C@H](CC(C)C)NC(=O)[C@H](Cc1ccc(O)cc1)NC(=O)[C@@H](NC(=O)[C@H](CO)NC(=O)[C@H](Cc1ccc(O)cc1)NC(=O)[C@H](CC(=O)O)NC(=O)[C@H](CO)NC(=O)[C@@H](NC(=O)[C@H](Cc1ccccc1)NC(=O)[C@@H](NC(=O)CNC(=O)[C@H](CCC(=O)O)NC(=O)C(C)(C)NC(=O)[C@@H](N)Cc1ccc(O)cc1)[C@@H](C)O)[C@@H](C)O)[C@@H](C)CC)C(C)C)C(N)=O
On to B1, for which the EC50 (in general, the concentration giving half of the maximal effect) in test [1] was 0.0077 nM; in test [2] it was 0.0124 nM.
Consider Y[Aib]EGTFTSDYSIYLDKQAA[Aib]EFVNWLLAGGPSSGAPPPSC(PEG 40 kDa)-NH2 [mt-274], for which the entries for the “EC50” value in test [3], in test [1] and in test [2] were 69.1 nM, 0.035 nM and 0.0916 nM, respectively. Besides, the values for the relative activity in test [3], in test [1] and in test [2] were 0.06%, 39.7% and 7.75%, respectively.
Take YXQGTFTSDYSIYLDXQAAXEFVNWLLAGGPSSGAPPPSC (Orn at position 16; AIB at position 20) [mt-275]: the “EC50” value in test [3] was determined as 0.0671 nM; in test [1] it was 0.0124 nM; in test [2], 0.0068 nM. In addition, the relative activity in test [3] worked out at 62.1%; in test [1] it was 112%; in test [2], 104%.

B2: mt-279 (peptide)
peptide: Y[Aib]QGTFTSDYSIYLDKQAA[Aib]EFVNWLLAGGPSSGAPPPSK(Stearoyl)-NH2
modifications: N-terminus assumed
SMILES: CCCCCCCCCCCCCCCCCC(=O)NCCCC[C@H](NC(=O)[C@H](CO)NC(=O)[C@@H]1CCCN1C(=O)[C@@H]1CCCN1C(=O)[C@@H]1CCCN1C(=O)[C@H](C)NC(=O)CNC(=O)[C@H](CO)NC(=O)[C@H](CO)NC(=O)[C@@H]1CCCN1C(=O)CNC(=O)CNC(=O)[C@H](C)NC(=O)[C@H](CC(C)C)NC(=O)[C@H](CC(C)C)NC(=O)[C@H](Cc1c[nH]c2ccccc12)NC(=O)[C@H](CC(N)=O)NC(=O)[C@@H](NC(=O)[C@H](Cc1ccccc1)NC(=O)[C@H](CCC(=O)O)NC(=O)C(C)(C)NC(=O)[C@H](C)NC(=O)[C@H](C)NC(=O)[C@H](CCC(N)=O)NC(=O)[C@H](CCCCN)NC(=O)[C@H](CC(=O)O)NC(=O)[C@H](CC(C)C)NC(=O)[C@H](Cc1ccc(O)cc1)NC(=O)[C@@H](NC(=O)[C@H](CO)NC(=O)[C@H](Cc1ccc(O)cc1)NC(=O)[C@H](CC(=O)O)NC(=O)[C@H](CO)NC(=O)[C@@H](NC(=O)[C@H](Cc1ccccc1)NC(=O)[C@@H](NC(=O)CNC(=O)[C@H](CCC(N)=O)NC(=O)C(C)(C)NC(=O)[C@@H](N)Cc1ccc(O)cc1)[C@@H](C)O)[C@@H](C)O)[C@@H](C)CC)C(C)C)C(N)=O
On to B2, for which the “EC50” value in test [1] came out at 0.0045 nM; in test [2], 0.0046 nM.

B3: mt-306 (peptide)
peptide: Y[Aib]EGTFTSDYSIYLDKQAA[Aib]EFVCWLLAGGPSSGAPPPSK(Myristoyl)-NH2
modifications: N-terminus assumed
SMILES: CCCCCCCCCCCCCC(=O)NCCCC[C@H](NC(=O)[C@H](CO)NC(=O)[C@@H]1CCCN1C(=O)[C@@H]1CCCN1C(=O)[C@@H]1CCCN1C(=O)[C@H](C)NC(=O)CNC(=O)[C@H](CO)NC(=O)[C@H](CO)NC(=O)[C@@H]1CCCN1C(=O)CNC(=O)CNC(=O)[C@H](C)NC(=O)[C@H](CC(C)C)NC(=O)[C@H](CC(C)C)NC(=O)[C@H](Cc1c[nH]c2ccccc12)NC(=O)[C@H](CS)NC(=O)[C@@H](NC(=O)[C@H](Cc1ccccc1)NC(=O)[C@H](CCC(=O)O)NC(=O)C(C)(C)NC(=O)[C@H](C)NC(=O)[C@H](C)NC(=O)[C@H](CCC(N)=O)NC(=O)[C@H](CCCCN)NC(=O)[C@H](CC(=O)O)NC(=O)[C@H](CC(C)C)NC(=O)[C@H](Cc1ccc(O)cc1)NC(=O)[C@@H](NC(=O)[C@H](CO)NC(=O)[C@H](Cc1ccc(O)cc1)NC(=O)[C@H](CC(=O)O)NC(=O)[C@H](CO)NC(=O)[C@@H](NC(=O)[C@H](Cc1ccccc1)NC(=O)[C@@H](NC(=O)CNC(=O)[C@H](CCC(=O)O)NC(=O)C(C)(C)NC(=O)[C@@H](N)Cc1ccc(O)cc1)[C@@H](C)O)[C@@H](C)O)[C@@H](C)CC)C(C)C)C(N)=O
With B3, the “EC50” value was found to be 0.0064 nM in test [1] and 0.0201 nM in test [2].
On to Y[Aib]EGTFTSDYSIYLDKQAA[Aib]EFVCWLLAGGPSSGAPPPSK(C18 fatty acyl)-NH2 [mt-307], for which the figures for the “EC50” value in test [1] and in test [2] were 0.0127 nM and 0.0143 nM, respectively.

B4: mt-308 (peptide)
peptide: Y[Aib]EGTFTSDYSIYLDKQAA[Aib]EFVCWLLAGGPSSGAPPPSK-NH2
modifications: N-terminus assumed
SMILES: CC[C@H](C)[C@H](NC(=O)[C@H](CO)NC(=O)[C@H](Cc1ccc(O)cc1)NC(=O)[C@H](CC(=O)O)NC(=O)[C@H](CO)NC(=O)[C@@H](NC(=O)[C@H](Cc1ccccc1)NC(=O)[C@@H](NC(=O)CNC(=O)[C@H](CCC(=O)O)NC(=O)C(C)(C)NC(=O)[C@@H](N)Cc1ccc(O)cc1)[C@@H](C)O)[C@@H](C)O)C(=O)N[C@@H](Cc1ccc(O)cc1)C(=O)N[C@@H](CC(C)C)C(=O)N[C@@H](CC(=O)O)C(=O)N[C@@H](CCCCN)C(=O)N[C@@H](CCC(N)=O)C(=O)N[C@@H](C)C(=O)N[C@@H](C)C(=O)NC(C)(C)C(=O)N[C@@H](CCC(=O)O)C(=O)N[C@@H](Cc1ccccc1)C(=O)N[C@H](C(=O)N[C@@H](CS)C(=O)N[C@@H](Cc1c[nH]c2ccccc12)C(=O)N[C@@H](CC(C)C)C(=O)N[C@@H](CC(C)C)C(=O)N[C@@H](C)C(=O)NCC(=O)NCC(=O)N1CCC[C@H]1C(=O)N[C@@H](CO)C(=O)N[C@@H](CO)C(=O)NCC(=O)N[C@@H](C)C(=O)N1CCC[C@H]1C(=O)N1CCC[C@H]1C(=O)N1CCC[C@H]1C(=O)N[C@@H](CO)C(=O)N[C@@H](CCCCN)C(N)=O)C(C)C
As to B4, the figures for the “EC50” value in test [1] and in test [2] were 0.0057 nM and 0.0237 nM, respectively.
On to Y[Aib]EGTFTSDYSIYLDKQAA[Aib]EFVNWLLAGGPSSGAPPPSK(Myristoyl)-NH2 [mt-260], for which the “EC50” value was determined as 0.321 nM in test [3], 0.0018 nM in test [1] and 0.0068 nM in test [2].

B5: mt-278 (peptide)
peptide: Y[Aib]QGTFTSDYSIYLDKQAA[Aib]EFVNWLLAGGPSSGAPPPSK(Palmitoyl)-NH2
modifications: N-terminus assumed
SMILES: CCCCCCCCCCCCCCCC(=O)NCCCC[C@H](NC(=O)[C@H](CO)NC(=O)[C@@H]1CCCN1C(=O)[C@@H]1CCCN1C(=O)[C@@H]1CCCN1C(=O)[C@H](C)NC(=O)CNC(=O)[C@H](CO)NC(=O)[C@H](CO)NC(=O)[C@@H]1CCCN1C(=O)CNC(=O)CNC(=O)[C@H](C)NC(=O)[C@H](CC(C)C)NC(=O)[C@H](CC(C)C)NC(=O)[C@H](Cc1c[nH]c2ccccc12)NC(=O)[C@H](CC(N)=O)NC(=O)[C@@H](NC(=O)[C@H](Cc1ccccc1)NC(=O)[C@H](CCC(=O)O)NC(=O)C(C)(C)NC(=O)[C@H](C)NC(=O)[C@H](C)NC(=O)[C@H](CCC(N)=O)NC(=O)[C@H](CCCCN)NC(=O)[C@H](CC(=O)O)NC(=O)[C@H](CC(C)C)NC(=O)[C@H](Cc1ccc(O)cc1)NC(=O)[C@@H](NC(=O)[C@H](CO)NC(=O)[C@H](Cc1ccc(O)cc1)NC(=O)[C@H](CC(=O)O)NC(=O)[C@H](CO)NC(=O)[C@@H](NC(=O)[C@H](Cc1ccccc1)NC(=O)[C@@H](NC(=O)CNC(=O)[C@H](CCC(N)=O)NC(=O)C(C)(C)NC(=O)[C@@H](N)Cc1ccc(O)cc1)[C@@H](C)O)[C@@H](C)O)[C@@H](C)CC)C(C)C)C(N)=O
On to B5, for which the entries for the “EC50” value in test [1] and in test [2] were 0.0028 nM and 0.0042 nM, respectively.
